Data published in patent US20230129812A1 (ACCELERON PHARMA, published 2023).
Numbering of substitutions follows the chain as printed. Numbers in names are those of the source.

B1: Soluble ActRIIB-Fc D54A (Table 11) (Fc fusion, UniProt Q13705 19-119, looked up, not shown: a dimerising Fc or GST)
chain: SGRGEAETRECIYYNANWELERTNQSGLERCEGEQAKRLHCYASWANSSGTIELVKKGCWLDDFNCYDRQECVATEENPQVYFCCCEGNFCNERFTHLPEA
B2: Soluble ActRIIB-Fc F82A (Table 11) (Fc fusion, UniProt Q13705 19-119, looked up, not shown: a dimerising Fc or GST)
chain: B1 chain with A36D, F64A
B3: Soluble ActRIIB-Fc D80I (Table 11) (Fc fusion, UniProt Q13705 19-119, looked up, not shown: a dimerising Fc or GST)
chain: B1 chain with A36D, D62I
B4: Soluble ActRIIB-Fc K74I (Table 11) (Fc fusion, UniProt Q13705 19-119, looked up, not shown: a dimerising Fc or GST)
chain: B1 chain with A36D, K56I
B5: Soluble ActRIIB-Fc L79A (Table 11) (Fc fusion, UniProt Q13705 19-119, looked up, not shown: a dimerising Fc or GST)
chain: B1 chain with A36D, L61A
B6: Soluble ActRIIB-Fc R40A (Table 11) (Fc fusion, UniProt Q13705 19-119, looked up, not shown: a dimerising Fc or GST)
chain: B1 chain with R22A, A36D
B7: Soluble ActRIIB-Fc K74Y (Table 11) (Fc fusion, UniProt Q13705 19-119, looked up, not shown: a dimerising Fc or GST)
chain: B1 chain with A36D, K56Y
B8: Soluble ActRIIB-Fc K74F (Table 11) (Fc fusion, UniProt Q13705 19-119, looked up, not shown: a dimerising Fc or GST)
chain: B1 chain with A36D, K56F
B9: ActRIIB-Fc homodimer (Fc fusion)
chain: GRGEAETRECIYYNANWELERTNQSGLERCEGEQDKRLHCYASWRNSSGTIELVKKGCWLDDFNCYDRQECVATEENPQVYFCCCEGNFCNERFTHLPEAGGPEVTYEPPPTAPTGGGTHTCPPCPAPELLGGPSVFLFPPKPKDTLMISRTPEVTCVVVDVSHEDPEVKFNWYVDGVEVHNAKTKPREEQYNSTYRVVSVLTVLHQDWLNGKEYKCKVSNKALPVPIEKTISKAKGQPREPQVYTLPPSREEMTKNQVSLTCLVKGFYPSDIAVEWESNGQPENNYKTTPPVLDSDGSFFLYSKLTVDKSRWQQGNVFSCSVMHEALHNHYTQKSLSLSPGK
notes: also called ActRIIB-Fc:ActRIIB-Fc homodimer
B10: ALK4-Fc:ActRIIB-Fc heterodimer (Fc fusion)
chain 1: B9 chain with V226A, E252K, D295K
chain 2: SGPRGVQALLCACTSCLQANYTCETDGACMVSIFNLDGMEHHVRTCIPKVELVPAGKPFYCLSSEDLRNTHCCYTDYCNRIDLRVPSGHLKEPEHPSMWGPVETGGGTHTCPPCPAPELLGGPSVFLFPPKPKDTLMISRTPEVTCVVVDVSHEDPEVKFNWYVDGVEVHNAKTKPREEQYNSTYRVVSVLTVLHQDWLNGKEYKCKVSNKALPAPIEKTISKAKGQPREPQVYTLPPSREEMTKNQVSLTCLVKGFYPSDIAVEWESNGQPENNYDTTPPVLDSDGSFFLYSDLTVDKSRWQQGNVFSCSVMHEALHNHYTQKSLSLSPG
notes: The receptor parts are the same in all three; also called ALK4-Fc:ActRIIB-Fc heterodimeric complex; ALK4:ActRIIB heterodimer
B11: ActRIIB(20-134)-hFc (Fc fusion)
chain: B9 chain
notes: also called ActRIIB-hFc
B12: ActRIIB(R64K 20-134)-hFc (Fc fusion)
chain: B9 chain with R45K
B13: BMP10 (ligand, UniProt O95393 317-424, looked up)
chain: NAKGNYCKRTPLYIDFKEIGWDSWIIAPPGYEAYECRGVCNYPLAEHLTPTKHAIIQALVHLKNSQKASKACCVPTKLEPISILYLDKGVVTYKFKYEGMAVSECGCR

How the values were obtained:
[1] = biological target: T1, activin A (UniProt P08476 311-426); assay: SPR (Biacore); ligand coupled, receptor flowed over (as reported in WO2006/012627); - means ~1/2 WT binding
T1 construct: also called ActA
T1 sequence (looked up): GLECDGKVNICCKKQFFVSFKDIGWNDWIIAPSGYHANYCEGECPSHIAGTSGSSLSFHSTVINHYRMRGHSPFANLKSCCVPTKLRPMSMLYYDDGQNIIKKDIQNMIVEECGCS
Excerpt: (§1) Other variants have been generated and tested, as reported in WO2006/012627 (incorporated herein by reference in its entirety). See, e.g., pp. 59-60, using ligands coupled to the device and flowing receptor over the coupled ligands. […] Table 11 showing data with respect to these variants is reproduced below: […]

[2] = biological target: T2, GDF11 (UniProt O95390 299-407); assay: SPR (Biacore); ligand coupled, receptor flowed over (as reported in WO2006/012627)
T2 construct: also called BMP11
T2 sequence (looked up): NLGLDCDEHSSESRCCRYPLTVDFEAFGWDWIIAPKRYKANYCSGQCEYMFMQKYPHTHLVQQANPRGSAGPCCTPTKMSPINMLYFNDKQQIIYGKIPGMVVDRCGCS
Excerpt: as §1

[3] = biological target: T2, GDF11; assay: SPR (Biacore); ligand coupled, receptor flowed over (as reported in WO2006/012627); - means ~1/2 WT binding
Excerpt: as §1

[4] = biological target: T2, GDF11; assay: SPR (Biacore); ligand coupled, receptor flowed over (as reported in WO2006/012627); -- means <1/5 WT binding
Excerpt: as §1

[5] = biological target: T1, activin A; assay: SPR (Biacore); ligand coupled, receptor flowed over (as reported in WO2006/012627)
Excerpt: as §1

[6] = biological target: T1, activin A; assay: SPR (Biacore); ligand coupled, receptor flowed over (as reported in WO2006/012627); + means WT
Excerpt: as §1

[7] = biological target: T3, activin B (UniProt P09529 293-407); assay: SPR (Biacore); receptor-Fc captured by anti-Fc antibody, ligand injected
T3 sequence (looked up): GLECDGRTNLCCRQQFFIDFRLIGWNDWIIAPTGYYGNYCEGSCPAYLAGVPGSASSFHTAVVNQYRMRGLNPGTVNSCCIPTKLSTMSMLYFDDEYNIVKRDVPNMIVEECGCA
Experimental: (§2) A Biacore™-based binding assay was used to compare ligand binding selectivity of the ALK4-Fc:ActRIIB-Fc heterodimeric complex described above with that of ActRIIB-Fc and ALK4-Fc homodimer complexes. The ALK4-Fc:ActRIeB-Fc heterodimer, […], and ALK4-Fc homodimer were independently captured onto the system using an anti-Fc antibody. Ligands were injected and allowed to flow over the captured receptor protein. Results are summarized in Table 13 below, in which ligand off-rates (kd) most indicative of effective polypeptides are denoted in bold.

[8] = biological target: T4, GDF8 (UniProt O14793 267-375); assay: as above
T4 construct: also called myostatin
T4 sequence (looked up): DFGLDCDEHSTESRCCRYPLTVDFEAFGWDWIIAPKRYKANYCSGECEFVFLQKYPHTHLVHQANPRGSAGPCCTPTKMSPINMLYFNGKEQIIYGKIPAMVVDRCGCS
Experimental: as §2

[9] = biological target: T5, GDF3 (UniProt Q9NR23 251-364); assay: as above
T5 construct: also called VGR2
T5 sequence (looked up): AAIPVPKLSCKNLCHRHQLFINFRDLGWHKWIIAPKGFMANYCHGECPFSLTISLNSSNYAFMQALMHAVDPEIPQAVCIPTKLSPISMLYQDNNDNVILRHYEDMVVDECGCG
Experimental: as §2

[10] = biological target: T1, activin A; assay: as above
Experimental: as §2

[11] = biological target: B13; assay: as above
Experimental: as §2

[12] = biological target: T6, BMP6 (UniProt P22004 375-513, limits assumed); assay: as above
T6 sequence (looked up): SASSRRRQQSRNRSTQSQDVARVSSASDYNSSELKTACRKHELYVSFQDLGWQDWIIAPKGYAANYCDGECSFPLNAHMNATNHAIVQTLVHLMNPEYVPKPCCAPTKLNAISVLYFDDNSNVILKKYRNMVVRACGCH
Experimental: as §2

[13] = biological target: T2, GDF11; assay: as above
Experimental: as §2

[14] = biological target: T7, BMP9 (UniProt Q9UK05 320-429); assay: as above
T7 construct: also called GDF2
T7 sequence (looked up): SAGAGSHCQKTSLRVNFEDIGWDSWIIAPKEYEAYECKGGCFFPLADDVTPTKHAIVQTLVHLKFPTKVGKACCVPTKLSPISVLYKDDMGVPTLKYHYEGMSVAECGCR
Experimental: as §2

[15] = biological target: T4, GDF8; assay: SPR (Biacore); receptor-Fc captured by anti-hFc antibody, ligand injected
Experimental: (§3) Binding of certain ActRIIB-Fc proteins and ActRIIB variant Fc fusion polypeptides to ligands was tested in a Biacore™ assay.
(§4) The ActRIIB-Fc variants or wild-type protein were captured onto the system using an anti-hFc antibody. Ligands were injected and flowed over the captured receptor proteins.

[16] = biological target: T1, activin A; assay: as above
Experimental: as §3, §4

[17] = biological target: T2, GDF11; assay: as above
Experimental: as §3, §4

[18] = biological target: T8, ActRIIA-mFc (human, UniProt P27037 21-135); assay: SPR (Biacore), similar binding assay
T8 construct: not shown: minimal linker and mouse Fc domain
Experimental: GDF11 or activin A were immobilized on a Biacore™ CM5 chip using standard amine-coupling procedure. ActRIIA-hFc and ActRIIA-mFc proteins were loaded onto the system, and binding was measured. […] Using a similar binding assay, ActRIIA-hFc was determined to have high to moderate affinity for other TGF-beta superfamily ligands including, for example, activin B, GDF8, BMP6, and BMP10. ActRIIA-mFc behaved similarly.

T8 sequence (P27037 21-135): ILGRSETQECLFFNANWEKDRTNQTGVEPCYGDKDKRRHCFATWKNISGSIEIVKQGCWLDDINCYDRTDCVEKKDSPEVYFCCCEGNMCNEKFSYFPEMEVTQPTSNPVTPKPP

B1: binds [1]; no binding [2].

B2: binds [3].

For B3, the “binding relative to WT” value [4] was less than 0.2 fold and the binding result [5] was “no binding”.

For B4, the “binding relative to WT” value [4] was less than 0.2 fold and the binding result [5] was “no binding”.

B5: no binding [2]; binds [6].

B6: binds [1]; binds [3].

With B7 the “binding relative to WT” value [4] was less than 0.2 fold and the binding result [5] was “no binding”.

For B8, the “binding relative to WT” value [4] was less than 0.2 fold and the binding result [5] was “no binding”.

In the case of B9, the Kd [7] is reported as 0.02 nM, the koff [7] is reported as 0.0001 s⁻¹ and the kon [7] is reported as 5.1e+06 M⁻¹ s⁻¹. It also gave a Kd [8] of 0.28 nM, a koff [8] of 0.00023 s⁻¹ and a kon [8] of 830000 M⁻¹ s⁻¹. The Kd [9] was 1.5 nM, the koff [9] was 0.0022 s⁻¹ and the kon [9] was 1.4e+06 M⁻¹ s⁻¹. The Kd [10] was 0.019 nM, the koff [10] was 0.00023 s⁻¹ and the kon [10] was 1.2e+07 M⁻¹ s⁻¹. For the same binder, the Kd [11] was 0.011 nM, the koff [11] was 0.00026 s⁻¹ and the kon [11] was 2.3e+07 M⁻¹ s⁻¹. It also gave a Kd [12] of 0.19 nM, a koff [12] of 0.0068 s⁻¹ and a kon [12] of 3.2e+07 M⁻¹ s⁻¹. For the same binder, the Kd [13] was 0.002 nM, the koff [13] was 0.00011 s⁻¹ and the kon [13] was 5e+07 M⁻¹ s⁻¹. For the same binder, the Kd [14] was 0.077 nM, the koff [14] was 0.0011 s⁻¹ and the kon [14] was 1.4e+07 M⁻¹ s⁻¹.

B10 showed a Kd [7] of 0.006 nM, a koff [7] of 4e-05 s⁻¹ and a kon [7] of 7.1e+06 M⁻¹ s⁻¹. The Kd [8] was 0.55 nM, the koff [8] was 0.00021 s⁻¹ and the kon [8] was 390000 M⁻¹ s⁻¹. It also gave a Kd [9] of 4.9 nM, a koff [9] of 0.017 s⁻¹ and a kon [9] of 3.4e+06 M⁻¹ s⁻¹. It also gave a Kd [10] of 0.012 nM, a koff [10] of 0.00015 s⁻¹ and a kon [10] of 1.3e+07 M⁻¹ s⁻¹. The Kd [11] was 0.074 nM, the koff [11] was 0.0041 s⁻¹ and the kon [11] was 5.6e+07 M⁻¹ s⁻¹. For the same binder, the Kd [12] was 2.7 nM, the koff [12] was 0.0055 s⁻¹ and the kon [12] was 2e+06 M⁻¹ s⁻¹. For the same binder, the Kd [13] was 0.003 nM, the koff [13] was 0.00011 s⁻¹ and the kon [13] was 3.8e+07 M⁻¹ s⁻¹. It also gave a Kd [14] of 3.4 nM.

In the case of B11, the Kd [15] is reported as 0.0935 nM, the koff [15] is reported as 3.45e-05 s⁻¹ and the Kd [16] is reported as 0.0268 nM. It also gave a koff [16] of 0.000159 s⁻¹, a kon [16] of 5.94e+06 M⁻¹ s⁻¹ and a Kd [17] of 0.0842 nM. For the same binder, the koff [17] was 0.000113 s⁻¹ and the kon [17] was 1.34e+06 M⁻¹ s⁻¹.

B12 showed a Kd [15] of 0.21 nM, a koff [15] of 4.71e-05 s⁻¹ and a Kd [16] of 0.0476 nM. The koff [16] was 0.000325 s⁻¹, the kon [16] was 6.82e+06 M⁻¹ s⁻¹ and the Kd [17] was 0.0356 nM. The koff [17] was 2.41e-05 s⁻¹.

B13: binds [18].
